16 sequences from a protein production outcome set (Wang et al. 2014) can be followed below.

This data set in a line: label from the status in PepcDB records.
For the sequence “MPFLYRLASLLIALLVLPVQAAEMRVALLRTSGVETLDALTVDGGSWVRRVPLSHTAVLIEHHAATLLFDTGLGRDIDAQFRADMPWWAAPLFAYQKVVPARDQLDAAGIRVDRILLSHAHWDHASGLVDFPEVPVWAPYEEIAFSRIATPPAAFPSQFRHGVRWQPYSFDPRPFMGFDESLDLFGDGRLVLVPLPGHTPGSVGLFVTLDSGRRLFFSGDTSWRLEGVEGPRQKFFAGRALVDRDPARTLAQLAKIRLLLRSDPRLSVIPAHDARVQAALGYFPHWLE”, the protein production result is given as “failed”.
For “MPFSISGRKGSEMMAKLDELKQKLTAKQIQAAYLLVENELMESNNEEKRTQDEMANELGINRTTLWEWRTKNQDFIAFKSEVADSFLAEKREQVYSKLMQLILGPQPSVKAMQLYMQRFGLLTDKKVIEGDLGNATRTNAEIEEQLQKLKKLTGE”, the protein production entry was “not failed”.
As for “MPFSWLKPIDYARIFVGWASIFIIPLITLPSIIELALIVAVILFCAFGVVKMAERLAHILGDPFGSLILTLSIVIIEVILICAVMLGPADSTTAGRDSVMAVSMIIMGLVVGLCLLIGGLRHGSMPHNGVGTPTYLVLIATFSVIAFAVPAFRGEYSTGQALVISTLTAVVYGFFLFRQMGAQAGEFQEVEVAEKADDAAKWEVPFRGLILIITVLPIVLLSHDMATVMDEVLASLGAPVAMAGLIIATIVFLPETITSLKAAWTGEIQRVSNLAHGAQVSTVGLTIPAVLVIGVITGQDVVLGETPINLLLLGTTIAVTAIAFSSKKVSAVHGSVLLMLFGVYMMSMFA”, the entry is “failed”.
As for “MPFTLHLRSRLPSAIRSLILQKKPNIRNTSSMAGELRPASLVVLPRSLAPAFERFCQVNTGPLPLLGQSEPEKRMLPPQGAISETRMGHPQFWKYEFGACTGSLASLEQYSEQLKDMVAFFLGCSFSLEEALEKAGLPRRDPAGHSQAGAYKTTVPCVTHAGFCCPLVVTMRPIPKDKLEGLVRACCSLGGEQGQPVHMGDPELLGIKELSKPAYGDAMVCPPGEVPVFWPSPLTSLGAVSSCETPLAFASIPGCTVMTDLKDAKAPPGCLTPERIPEVHHISQDPLHYSIASVSASQKIRELESMIGIDPGNRGIGHLLCKDELLKASLSLSHARSVLITTGFPTHFNHEPPEETDGPPGAVALVAFLQALEKEVAIIVDQRAWNLHQKIVEDAVEQGVLKTQIPILTYQGGSVEAAQAFLCKNGDPQTPRFDHLVAIERAGRAADGNYYNARKMNIKHLVDPIDDLFLAAKKIPGISSTGVGDGGNELGMGKVKEAVRRHIRHGDVIACDVEADFAVIAGVSNWGGYALACALYILYSCAVHSQYLRKAVGPSRAPGDQAWTQALPSVIKEEKMLGILVQHKVRSGVSGIVGMEVDGLPFHNTHAEMIQKLVDVTTAQV”, the entry is “failed”.
Next, “MPFTPVDWAILGIVAISALISLKRGFVKEALSLTTWIIAGVVAWMFGAGLSQYLVNYIETPSARVIASCTILFVATLLVGAMVNFLIGELIRVTGLSGTDRFLGMVFGAARGGLLVVVAVGLLSLGPVQQDQWWQQSRLVPQFLIVADWSKNLILGMSSKWLASGISVPADLPFKEQILPPTLPQDVLGKSSSTK”: “failed”; “MPFVAVATCLSPLIICYPQNRTMECDLLMIKIEKVINKNDLKAFIAFPSSLYPDDPNWIPPLFIERNEHLSAKNPGTDHIIWQAWVAKKAGQIVGRITAQIDTLHRERYGKDTGHFGMIDAIDDPQVFAALFGAAEAWLKSQGASKISGPFSLNINQESGLLIEGFDTPPCAMMPHGKPWYAAHIEQLGYHKGIDLLAWWMQRTDLTFSPALKKLMDQVRKKVTIRCINRQRFAEEMQILREIFNSGWQHNWGFVPFTEHEFATMGDQLKYLVPDDMIYIAEIDSAPCAFIVGLPNINEAIADLNGSLFPFGWAKLLWRLKVSGVRTARVPLMGVRDEYQFSRIGPVIALLLIEALRDPFARRKIDALEMSWILETNTGMNNMLERIGAEPYKRYRLYEKQI”: “failed”.
Regarding “MPGAVDFKERISRQRPHDRETYGHAGNTDLQDIVYQLESDRGRIVNSAAVRRLQQKTQVFPLERNAAVRSRLTHSLEVQQTGRFIVRTLFRQLGPRAAEVGLDGLEGALESLVEMACLMHDVGNPPFGHFGEYAINDWFERNLDALFERRIPPGQGDGLLQQRMLTDLKHFEGNAQAIRLVVKLLRLNLTYTQTAGLLKYVRPAYEPKPDKAAANHYLNKKPGFYLSEEAFVDELRRVLGMRPGTRHPVAYIMEAADDISYCLADIEDSVEKGILDIRQLADLLVKKFAVHHSPDAPIPGDADNMSFQRMVDYSLEKAEREPINKVSEFFIRLRVKMIHPLVQHAAQQFIDNFEAVHAGTLGRALMEDGSLPHAIVQTFKDVAMEWVFCHPEVETLELQGYRIIQGLLDFYAPLLRLPAEEFQALAEGRQAAAPHPQLLVRRLPSQQIKAYLEAMKGVAEDPLQRQWEFYHRCRMLQDFVSGMTDQHAQDEYRALSA”, the protein production result was “failed”.
With “MPGDTENTSTDTTNEHIDLALYRQLVKQFIDMRRYSTALFWAEKVAVLGGLEPRDIYYQAQCMYLLGEYHRAAHTIQHHKLEKNSLPCFNLLLESLYAAKEFTEAANVIQNVEVEVMTTSLINQPVDASSGCYLESNSVFGGEENHRNELLSSIYLMKGKVYEALDNRGMAMDFYVQALHKSIYCFEALEALVQHEMLMAWEEFELMHHLPLAQQSSEADAKFILKLYESRLKKYYELISARNAEEMSPIVNPDILQFIKEFTARVQQSGSSDTQMPKVSAVKVPLTPSQFMSPAQKVLEDLKAPTFSLQTSLSKASSLIDASHRSMFDSSSRRRSRDHDTDTLIPIAECLDRVQRSTDLMAAEAEKCFYDCDYKQCLKILNELLKVDPFHNTALTIQIACLVENGDFNRLFYVAHKLVDRYPDKAISWYAVGCYYDMIGKSDPARRYLSKATALDRLYGPAWLAYGHSFANENEHEQAMAAYFKATQLMRGCHLPLLYIGVECGLTKNLELAEKFFLQAMNIAPLDVYVLHELGVIKYEYEFFDGAATIFQCTVDIVKQRAKSNNEEISSRWEPLFINLGHSLRKVHKYEEALYNFQYALLLKPQSPTTYTSIGFIHALLGNLDPAIEAFHKSLALNRDCIVTSTILKSCIEDLMDDSATIDEICSAALRDVAKNITANSRRVLNSDKFNGMKLKFDEEEEFANSDSNMVVEMSFDT”, the protein production entry was “failed”.
As for “MPGEEVSQAKQQLKLIIDAYLSESDVDNVLAACDFADLAHSGITRKSGEPYILHPIAVSCILAHMRLDAETLMAALLHDVIEDTEHTKDEIGERFGEVVADLVDGVTKLTHSSDKQYNKAASFRKILQATLQDPRVIIIKLADRYHNMTTLDALRPDKRARIAQETFDIFVPMARIVGMNEMGDNLELLCYQNLDLDMYNNVQEALLETKPRRCEYQTKWEHHLGELLTTYHIHGRVKKKNNNIELLRHFVKNEIDLQELTHSHAFEIILNSISDCDRLVDALKENFQILHFEDHIRRPLPGGNQSIMMKLKGEQTTLSLTIQTELMRKAARFGVVLGENAPQACRSAIQASMQNLTTLIDGECAKTTFNDLLDYLHQEKIWVYTPHGHLHELPQGATVIDFAYSASLFLGNHAVGAKIDGEIRPLSTPLVSGQVIDVITDVLATPNPDWLSFINTQKARRAIQNMLRDQDIEEQLLVGQQALNRALKLFNRSMHDLSESDWLNVLQWRHVENKEALFEQIAVGDLLPQLVANHLYAQDTSDKTGHAPDRLIQGTEGVDVKYAHCCNPILGDPIQGHLSRRGLIVHRARCHNLLHEQHLHPENIMPLQWTSDDLDDVSFTAYLCIDMPLDGEQISELIYLCRKSHTGVEMVQPHGDHTYVNIVVNNRKVVAQIIRDLRMLFGFPRVSRLFTPAAVTESVKIKVS”, the entry is “failed”; as for “MPGESNIIEWPASRVRVISGASWSRNGQILSGRCKANNGTWFGITKGGRVAFLVNTSLLLDRVKSYSGSELYPVRFLEGNMSPEQFANEVKVHEKETNERHAYSLVVADMTSSSMVHILKPSDTKSDVVIETVPFGVHTLSSYEGLDSTDSARDLLLRRLFTQMVGNLGNVQQRQMEEIAGRFMYDAQAGRDAVFYHSRDEHPNGKLGTQRFGTTSTTALVVKRTREVMLFEKYMEQNGAWNTNNFAFNIQKQQKLYPNLDKEALKRVGVFALEEVNNHEHDIHPDLMPSFFEDDMLKVKFNEMIARHAKLPPIKNIVEDLMMKSPFFIDSVDGAGKKVRYRTVRTLGMDIKANRPQGRFYERHLNDNGEWVG”, “failed”.
Next, “MPGIKVHPNESFDEAYRKFKKQVDRNLVVTEVRARRFFEPMTEIRKKQKISARKKMLKRLYMLRRYESRLLEHHHHHH”: “failed”; “MPGKLTATILTRNEAANIGDCIDSLAQLADEVIVLDSGSTDATRDIARARGANVIEDDGPWPGFGPQKNRALDRATGEWVLSIDADERVPPELAQEIRTAMARADADAYAIPRLSQFCGAWVHHSGWRPDHVIRLFRRGKARFSENLVHESLQVTGNVARLRTSLLHYSYTSMDQVHRKSAQYAEAGARDLTQRGKHIGALSPVLHGTWAFVRTLVLRRGFLDGGTGLAIARMNATVSYRKYRRARELASGANHRPLEHHHHHH”: “failed”.
With “MPGSALKYRDLRDFLAQLERQGELKRITAPVSTRLEMTEIADRVLRAGGPALLFENARHNDAPADMPVLANLFGTPRRVAWGMGADDVGALRETGELLASLREPEAPKGLRDALAKVSMLKAALWDMSPKTVRSAACQEIVWEGADVELSRLPIQTCWPGDVAPLLAWGLVITRGPNARRQNLGIYRQQPLGPNKLIMRWLSHRGGALDFRDHAQAHPGKPFPITVALGADPATILGAVTPVPDTLSEYQFAGLLRGSRTEVVKALGSDLSVPASAEIVLEGHLLPADDPRAVAAVVPEGANPPPATGYEMALEGPYGDHTGYYNEQDWFPVFTVDRITMRRNPIYHSTYTGKPPDEPAVLGVALNEVFVPLLRRQLPEIVDFYLPPEGCSYRLAVVSIRKQYAGHAKRVMFGLWSVLRQFMYTKFIVVVDEDIDPRDWTEVVWAMTTRMDPVRDTVLVENAPIDYLDFASPVSGLGGKMGLDATNKWPGETSREWGTPIHMDEAVKRRVDAMWDTLGLLEHHHHHH”, the protein production entry was “failed”.
As for “MPGTKQVNVGSLKVGQYVMIDGVPCEIVDISVSKPGKHGGAKARVVGIGIFEKVKKEFVAPTSSKVEVPIIDRRKGQVLAIMGDMVQIMDLQTYETLELPIPEGIEGLEPGGEVEYIEAVGQYKITRVIGGK”, the entry is “not failed”.
For “MPHASQIVISISLFLMSMVAVAQKTIDIKKFNLVAEQVTELKKTDLVLSLKQLTTFENVLSALTVEQNLVYFKLLAEIQIEQNRYSAAKKTANEGLIIGRRLASPSILMSELLYLRGFSFESLGNIPRATKEYKKGLEVAESLHNKIQVALGLINLGAIAYLTDNYKRSLVLLNDAYNIAGQTDDEELKGTANTELGILYSLLRQGDQSMAYYQQSYKHFKKAGLLLSAHNSLHNIAITHIREKRYEQAITVFKTIIAESNKDTSSDSMFTVYSGMAWAHLKKKDSNIDAAHQYLLLAKQYLQFTEKVDYRLQFYFDEASVLYKLERFDEVLISIARIEKILVNHEDMPKRKRKGYVNIINLKAKVFYKQEKFKQAYETKSRVIALTEKLYENEDNRSIAQVRLKLEAEQADKQNEILNNQKSRYEASFNEAKLENEEQRIYLIISALLALAFAWVLVKLIQSQKKLKVALNVDKLTGTANRRRLMVKSQQAFELAKVKQYHLSLMMINIDHFKGINDSLGHSIGDEVLAKVAFIGANMVRKNDVFGRFSGGEFMVCLPKTNLKLAMETAECIRAAINEHTWQLNNIEKISVSIGVATLTDDSELISLVKRAEEQLYQAKASGKNKVCAQ”, the protein production entry is “failed”.
As for “MPHELSWGDIYFSPTLLVLFLAVTATWITVMILNKTRLSRFIAFPSLTFIAIMVGYVVAIDSFYIQF”, the protein production result is on record as “failed”.
